Non-standard residues stand in square brackets, D forms with d. No end group written: not given here. *: point of attachment. Biotin = O=C1N[C@H]2[C@H](CS[C@H]2CCCCC(=O)*)N1; sY = N[C@@H](Cc1ccc(OS(=O)(=O)O)cc1)C(=O)O
Key:
[1] = molecular target: T1, SulfoTyr C4 peptide (not fully specified; Y4, Y7 and Y9 sulfated (SO3); C-terminal biotin); experiment: ELISA, 50 nM mAb
T1 construct: also called C4 alpha chain peptide; human sulfotyrosinylated C4 peptide
T1 peptide: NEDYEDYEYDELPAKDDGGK
Procedure: (§1) Recombinant PSGL-1-hFc1 chimera protein consisting of PSGL-1's extracellular domain (ECD) served as a positive control. […] Primary antibody was added (25 ul per well) in duplicate at 50 nM in assay buffer (blocking buffer containing 0.05% Tween®20) into test and control (just blocked) wells and the plate incubated for 45 min at 37° C.

[2] = molecular target: T2, Sulfotyr fibrinogen γ peptide (not fully specified; Y8 and Y12 sulfated (SO3); C-terminal biotin); experiment: ELISA, 50 nM mAb
T2 construct: also called Fibrinogen gamma peptide; human sulfotyrosinylated fibrinogen peptide
T2 peptide: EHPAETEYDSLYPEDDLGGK
Procedure: as §1

[3] = molecular target: T3, Recombinant human PSGL-1(ECD)-hFc1 (R&D Systems, Cat. 3345-PS) (human, UniProt Q14242 42-305); experiment: ELISA, 50 nM mAb
T3 construct: Bought; Gln42-Val295 counted on AAC50061; also called PSGL-1-Fc; PSGL-1-hFc1 chimera; not shown: human IgG1 Fc, Pro100-Lys330
T3 sequence: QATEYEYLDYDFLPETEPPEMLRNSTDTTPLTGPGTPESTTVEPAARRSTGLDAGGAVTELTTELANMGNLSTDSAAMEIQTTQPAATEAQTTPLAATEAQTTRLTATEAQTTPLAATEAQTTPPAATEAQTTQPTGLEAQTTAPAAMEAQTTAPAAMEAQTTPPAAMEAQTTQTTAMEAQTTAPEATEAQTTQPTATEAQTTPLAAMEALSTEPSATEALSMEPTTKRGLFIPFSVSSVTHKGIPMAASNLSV
Procedure: as §1

[4] = molecular target: T4, Human complement C4 protein (Millipore Sigma, Cat. 204886) (human, UniProt P0C0L4 20-675; P0C0L4 680-1446; P0C0L4 1454-1744, limits assumed, natural sulfotyrosines); experiment: ELISA, 50 nM mAb
T4 construct: mature
T4 sequence (P0C0L4 20-675 limits assumed, form in doubt, chain 1 of 3): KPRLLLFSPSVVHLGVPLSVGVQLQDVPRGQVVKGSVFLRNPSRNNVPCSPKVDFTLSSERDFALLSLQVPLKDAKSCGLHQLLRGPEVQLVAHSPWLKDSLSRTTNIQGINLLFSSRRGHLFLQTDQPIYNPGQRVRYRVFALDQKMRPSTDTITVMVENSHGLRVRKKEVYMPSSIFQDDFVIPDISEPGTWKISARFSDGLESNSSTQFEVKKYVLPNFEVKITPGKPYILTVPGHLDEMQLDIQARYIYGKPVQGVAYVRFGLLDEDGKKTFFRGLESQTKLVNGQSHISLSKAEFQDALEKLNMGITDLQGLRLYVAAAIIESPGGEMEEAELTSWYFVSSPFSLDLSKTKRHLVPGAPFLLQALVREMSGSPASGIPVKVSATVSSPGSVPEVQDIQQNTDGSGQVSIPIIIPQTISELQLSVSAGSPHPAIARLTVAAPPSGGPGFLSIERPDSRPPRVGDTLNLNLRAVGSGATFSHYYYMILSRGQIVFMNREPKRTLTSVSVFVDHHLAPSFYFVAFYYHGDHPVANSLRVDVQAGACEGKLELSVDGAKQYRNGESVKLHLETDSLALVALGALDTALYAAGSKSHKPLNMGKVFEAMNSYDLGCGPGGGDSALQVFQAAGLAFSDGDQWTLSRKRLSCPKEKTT
T4 sequence (P0C0L4 680-1446 limits assumed, form in doubt, chain 2 of 3): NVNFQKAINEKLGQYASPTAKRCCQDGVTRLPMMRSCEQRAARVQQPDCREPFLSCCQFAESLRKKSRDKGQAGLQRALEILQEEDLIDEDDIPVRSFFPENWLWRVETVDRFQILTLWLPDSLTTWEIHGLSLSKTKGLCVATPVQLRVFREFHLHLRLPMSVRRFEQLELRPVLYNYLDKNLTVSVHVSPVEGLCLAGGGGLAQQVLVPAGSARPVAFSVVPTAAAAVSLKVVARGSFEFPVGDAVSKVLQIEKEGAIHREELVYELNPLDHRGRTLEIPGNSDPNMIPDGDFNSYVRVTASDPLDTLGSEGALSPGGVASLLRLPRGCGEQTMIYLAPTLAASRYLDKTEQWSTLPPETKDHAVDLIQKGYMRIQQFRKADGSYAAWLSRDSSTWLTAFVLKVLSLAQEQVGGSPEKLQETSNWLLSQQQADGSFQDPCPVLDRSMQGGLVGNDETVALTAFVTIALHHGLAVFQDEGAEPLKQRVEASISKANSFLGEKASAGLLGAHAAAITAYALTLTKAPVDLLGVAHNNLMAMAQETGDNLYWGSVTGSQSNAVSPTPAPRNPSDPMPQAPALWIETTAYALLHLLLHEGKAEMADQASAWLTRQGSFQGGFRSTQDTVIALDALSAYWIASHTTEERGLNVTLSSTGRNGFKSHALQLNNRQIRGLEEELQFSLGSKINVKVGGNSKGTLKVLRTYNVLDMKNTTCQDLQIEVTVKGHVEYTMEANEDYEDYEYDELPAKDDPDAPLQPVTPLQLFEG
T4 sequence (P0C0L4 1454-1744 limits assumed, form in doubt, chain 3 of 3): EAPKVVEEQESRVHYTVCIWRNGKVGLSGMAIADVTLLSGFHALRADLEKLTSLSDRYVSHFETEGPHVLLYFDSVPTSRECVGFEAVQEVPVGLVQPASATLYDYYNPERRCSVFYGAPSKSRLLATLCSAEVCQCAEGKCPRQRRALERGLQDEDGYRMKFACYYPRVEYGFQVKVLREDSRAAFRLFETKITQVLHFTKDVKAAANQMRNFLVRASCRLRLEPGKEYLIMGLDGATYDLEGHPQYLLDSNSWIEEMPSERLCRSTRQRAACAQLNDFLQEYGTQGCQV
Procedure: as §1

[5] = molecular target: T5, Human fibrinogen protein (ThermoFisher, RP-43142) (human, UniProt P02671 20-629; P02675 31-491; P02679 27-453, limits assumed, natural sulfotyrosines); experiment: ELISA, 50 nM mAb
T5 construct: mature; Native dimer with 3 pairs of non-identical chains; also called gamma-fibrinogen; γ fibrinogen protein
T5 sequence (looked up) 1: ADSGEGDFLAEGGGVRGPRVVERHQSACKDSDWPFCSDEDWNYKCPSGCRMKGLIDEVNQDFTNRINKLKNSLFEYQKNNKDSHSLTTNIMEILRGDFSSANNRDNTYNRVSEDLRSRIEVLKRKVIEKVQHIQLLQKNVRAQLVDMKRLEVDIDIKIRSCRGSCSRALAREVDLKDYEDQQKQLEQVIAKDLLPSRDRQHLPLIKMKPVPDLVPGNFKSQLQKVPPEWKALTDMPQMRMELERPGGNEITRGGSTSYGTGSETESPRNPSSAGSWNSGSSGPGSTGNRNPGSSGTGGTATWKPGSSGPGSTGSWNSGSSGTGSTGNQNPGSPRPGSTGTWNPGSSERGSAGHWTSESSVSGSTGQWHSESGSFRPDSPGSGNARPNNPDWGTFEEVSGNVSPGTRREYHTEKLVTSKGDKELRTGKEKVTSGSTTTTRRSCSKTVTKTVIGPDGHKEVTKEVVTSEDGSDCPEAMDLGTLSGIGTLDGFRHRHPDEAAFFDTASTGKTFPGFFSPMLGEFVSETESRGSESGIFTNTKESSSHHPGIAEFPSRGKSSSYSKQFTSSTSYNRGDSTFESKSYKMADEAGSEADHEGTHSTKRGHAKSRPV
T5 sequence (looked up) 2: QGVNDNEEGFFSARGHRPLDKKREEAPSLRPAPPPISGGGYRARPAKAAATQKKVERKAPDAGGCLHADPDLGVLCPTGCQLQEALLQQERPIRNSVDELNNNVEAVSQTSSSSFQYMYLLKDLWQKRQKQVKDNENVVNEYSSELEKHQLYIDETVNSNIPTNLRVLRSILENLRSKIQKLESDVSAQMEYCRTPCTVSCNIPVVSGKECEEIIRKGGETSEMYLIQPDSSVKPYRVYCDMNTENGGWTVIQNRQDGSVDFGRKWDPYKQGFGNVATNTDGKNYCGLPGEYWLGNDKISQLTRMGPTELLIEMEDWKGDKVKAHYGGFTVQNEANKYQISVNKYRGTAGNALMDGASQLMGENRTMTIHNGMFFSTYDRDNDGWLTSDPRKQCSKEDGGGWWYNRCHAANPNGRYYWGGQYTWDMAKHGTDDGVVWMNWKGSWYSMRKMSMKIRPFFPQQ
T5 sequence (looked up) 3: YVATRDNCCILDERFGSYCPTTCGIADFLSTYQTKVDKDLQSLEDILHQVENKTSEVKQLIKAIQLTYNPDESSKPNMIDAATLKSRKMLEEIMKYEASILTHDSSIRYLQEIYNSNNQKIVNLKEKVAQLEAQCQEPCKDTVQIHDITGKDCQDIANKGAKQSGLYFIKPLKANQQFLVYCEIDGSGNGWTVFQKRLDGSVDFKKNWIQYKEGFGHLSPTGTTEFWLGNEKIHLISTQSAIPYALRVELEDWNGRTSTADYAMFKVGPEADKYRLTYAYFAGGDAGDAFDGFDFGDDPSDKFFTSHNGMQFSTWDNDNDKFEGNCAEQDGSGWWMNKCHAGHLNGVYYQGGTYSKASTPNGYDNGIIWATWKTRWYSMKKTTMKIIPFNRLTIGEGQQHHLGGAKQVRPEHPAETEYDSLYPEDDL
Procedure: as §1

[6] = molecular target: T6, SulfoCCK biotin peptide (human); experiment: ELISA, 50 nM mAb
T6 construct: also called sulfotyrosine CCK peptide
T6 peptide: SHRISDRD[sY]MGWMDFGGK(Biotin)
Procedure: as §1

[7] = molecular target: T7, Sulfotyrosine CCR2b biotin peptide (human); experiment: ELISA, 50 nM mAb
T7 construct: also called CCR2b peptide
T7 peptide: TTFFD[sY]D[sY]GAPSHGGK(Biotin)
Procedure: as §1

[8] = molecular target: T8, Sulfotyrosine D6 biotin peptide (human); experiment: ELISA, 50 nM mAb
T8 construct: also called D6 peptide
T8 peptide: ENSSFY[sY][sY]D[sY]LDEVAFGGK(Biotin)
Procedure: as §1

[9] = molecular target: T9, Scrambled Y42,52,63(SO3) PSGL-1(42-62) biotin peptide (sulfotyrosine at peptide positions 1, 11 and 22; C-terminal Lys-biotin); experiment: ELISA, immobilized biotin peptide
T9 peptide: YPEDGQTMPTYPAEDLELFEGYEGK
Procedure: (§2) A typical ELISA was performed by coating high binding half-well plates (Corning Cat. #3690) with 3 ug/mL/25 ul per well of biotinylated N-terminal PSGL-1 peptides, which incorporated residues 42 to 62 of the protein, in PBS, pH 7.4, overnight at 4° C. The peptide was unmodified or contained sulfated tyrosine at all 3 tyrosine positions (46, 48, and 51) or at one position (tyr51) (Table 7).
(§3) PSGL-1 protein or peptide served as a positive control. […] […] […] For each antibody, duplicate values were averaged and average assay background was subtracted.

[10] = molecular target: T10, Biotin PSGL-1(42-62) peptide, unmodified (human, C-terminal Lys-biotin); experiment: ELISA, immobilized biotin peptide
T10 construct: Residues 42-62 followed by GGGK-biotin; also called WT; wild-type
T10 peptide: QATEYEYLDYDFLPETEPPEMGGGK
Procedure: as §2, §3

[11] = molecular target: T11, Biotin Y46,48,51(SO3) PSGL-1(42-62) peptide (human, sulfotyrosine at Y46, Y48 and Y51; C-terminal Lys-biotin); experiment: ELISA, immobilized biotin peptide
T11 construct: also called fully sulfated N-terminal PSGL-1 peptide
T11 peptide: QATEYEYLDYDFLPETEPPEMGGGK
Procedure: as §2, §3

Binder | binding normalized to PSGL-1 [1] | binding normalized to PSGL-1 [2] | A450nm [3] [A450nm] | binding normalized to PSGL-1 [4] | binding normalized to PSGL-1 [5] | binding result [5] | binding normalized to PSGL-1 [6] | binding normalized to PSGL-1 [7] | binding result [7] | binding normalized to PSGL-1 [8] | A450nm, 20 nM mAb [9] [A450nm] | binding result [9] | EC50 [10] [nM] | A450nm, 20 nM mAb [11] [A450nm] | EC50 [11] [nM] | A450nm, 20 nM mAb [10] [A450nm]
03B04 (antibody, IgG4, V domains shown) VH: EVKLLESGGGLVKPGGSLRLSCAASGFAFSRYTMNWVRQAPGKGLEWVSSISSSSSYIYYADSVKGRFTISRDNAKNSLVLQMNSLRPEDTAVYYCARGGIAANDYWGQGTLVTVSS VL: EIVMTQTPLSLPVTLGQPASISCRSSRNLVHYDGNTYLSWFHQRPGQPPRRLIYKISNRESGVPDRFSGSGSGTDFTLKISRVEAEDVGVYYCLQHTHWPWTFGPGTKVEIK | 0.41 | 0.57 | 1.7 | 0.56 | -0.07 | no binding (tested: 50 nM) | 0.13 | 0.01 | no binding (tested: 50 nM) | 0.42 | 0.01 | no binding (tested: 20 nM) | 5.1 | 2.5 | 1.7 | –
08C07 (antibody, IgG4, V domains shown) VH: QMQLVQSGAEVKKPGSSVKVSCKASGGTFSNYGMIWVRQAPRQGLEWMGRIIPFLDKPDYSEKFQDRITFTADKSTSTVYMELRGLRSDDTAVYYCAKWTSTLQGITTGQTWGQGTLVTVSS VL: QPVLTQPPSASGTPGQRVTISCSGSSSNIGGSYMYWYQQFPGTAPKLLIYRNNQRPSGVPDRFSGSKSGTSASLAISGLRSEDEADYYCAAWDVSLSGWVFGGGTKLTVL | 0.89 | 0.49 | 1.78 | 0.6 | 0.03 | – | 0.66 | 0.79 | – | 1.2 | – | no binding (tested: 20 nM) | – | 2.6 | – | –
07G01 (antibody, V domains shown) VH: EVKLLESGGGLVRPGGSLRLSCAASGFTLSNYAMSWVRQAPGKGLEWVSAISGVGITTYYADSVKGRFIISRDNSKNTVYLQMNSLRAEDTAVYYCAKSRGGGAFDYWGQGTLVTVSS VL: not shown | 1.41 | 1.44 | 1.69 | 1.38 | 0.13 | – | 1.66 | 1.63 | – | – | – | no binding (tested: 20 nM) | > 500 | 2.58 | 3.7 | –
02E06 (antibody, IgG4, V domains shown) VH: QVQLVQSGAEVKKPGASVKVSCKASGYSFTDYYMHWVRQAPGQGLEWMGWMNPNSGNTGYAQTFQGRVTMTRNTSISTAYMELSSLRSEDTAVYYCARGRRVRGTPTFEYWGQGTLVTVSS VL: QSVVTQPPSASGTPGQRVTISCSGRSSNIGSYTVNWFQHLPGTGPKLLIYGNNQRPSGVPGRFSGSKSGTSASLAISGLQSNDEATYYCAAWDDSLNGHYVFGTGTKVTVL | 1.28 | 1.34 | 1.8 | 1.24 | 0.2 | – | 1.21 | 1.19 | – | – | 0.12 | – | > 500 | 2.6 | 0.17 | –
02E01 (antibody, IgG4, V domains shown) VH: EVQLVQSGGGVVQPGRSLRLSCAASGFTFSRYGMHWVRQAPGKGLEWVSVISYDGNNKYYADSVKGRFTISRDNSKNTVYLQMNSLRADDTAVYYCARNVPVTNFGYWGQGTLVTVSS VL: QSALTQPASVSGSPGQSITISCTGTSSDVGGYNYVSWYQQHPGKAPKLMIYDVSKRPSGVSNRFSGSKSGNTASLTISGLQAEDEADYYCSSYTRPGRVFGGGTKLTVL | 0.94 | 1.13 | – | 0.87 | -0.18 | no binding (tested: 50 nM) | 0.5 | 0.56 | – | 1.48 | 0.03 | no binding (tested: 20 nM) | – | 2.5 | – | 2.07
